Assay results reported in PMC3102065.
Values joined by “and” are separate entries in the source; they are usually repeats but may differ in a detail not shown here. Equal values may be shown once.

Target: HSP90N (human HSP90 isoform that lacks the N-terminal ATPase domain) (human) (UniProt P07900)
Experiment: AUC; sedimentation velocity of fractions from the S-300 column, 0.3 mg/ml in 100 mM Tris-HCl, 45,000 rpm, 20°C, c(s) distribution (SEDFIT)

“HSP90N (human HSP90 isoform that lacks the N-terminal ATPase domain) (from UniProt P07900-1 224-732) (natural protein)” was tested, and the stoichiometry N was 2 and 4 and 6.
